In PMC10284417 one finds stoichiometry N data, which are given here for 1 substance.

For the test, the target named is EtpA^1-606 (Enterotoxigenic Escherichia coli (ETEC)). Put plainly: dynamic light scattering; Zetasizer, 4°C, 1 mg/mL protein in 20 mM Tris pH 7.5, 150 mM NaCl.

With EtpA^1-606 (domain or fragment), the stoichiometry N is 2.
